What follows are sequences tested on Escherichia coli TOP10 (assay: shrunken log2 fold change of peptide-encoding DNA abundance (4.5 h post-induction vs induction); higher = less antimicrobial activity (less host growth inhibition)). Conditions: time post-induction: 4.5 h; library: site-saturation at positions 5, 18, 19, 20.
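Note: peptides expressed intracellularly from a pBAD plasmid library in pooled LB shake-flask culture, induced with 0.3% L-arabinose, DNA abundance read by NGS, three biological replicates, DESeq2 with apeglm shrinkage.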

Sequence | shrunken log2 fold change
RRIRVRPPRLPRPRPRPPVPPRP | 0.35
RRIRWRPPRLPRPRPRPMTKPRP | 0.181
RRIRPRPPRLPRPRPRPSDSPRP | -0.361
RRIRERPPRLPRPRPRPVANPRP | -0.068
RRIRERPPRLPRPRPRPPGTPRP | 0.152
RRIRRRPPRLPRPRPRPKKCPRP | -0.325
RRIRFRPPRLPRPRPRPNCRPRP | 0.0638
RRIRIRPPRLPRPRPRPTWEPRP | -0.212
RRIRYRPPRLPRPRPRPDANPRP | -0.114
RRIRGRPPRLPRPRPRPSRNPRP | 0.0365
RRIRFRPPRLPRPRPRPPEVPRP | 0.795
RRIRARPPRLPRPRPRPGDVPRP | 0.194
RRIRPRPPRLPRPRPRPCCPPRP | -0.377
RRIRTRPPRLPRPRPRPFSAPRP | 0.0716
RRIRSRPPRLPRPRPRPISMPRP | -0.145
RRIRCRPPRLPRPRPRPGIHPRP | -0.405
RRIRSRPPRLPRPRPRPSEVPRP | -0.015
RRIRTRPPRLPRPRPRPNWEPRP | 0.00854
RRIRVRPPRLPRPRPRPEKPPRP | 0.00308
RRIRCRPPRLPRPRPRPFCVPRP | -0.248
RRIRTRPPRLPRPRPRPGQPPRP | 0.161
RRIRNRPPRLPRPRPRPANMPRP | -0.205
RRIRLRPPRLPRPRPRPMWQPRP | 0.0197
RRIRGRPPRLPRPRPRPGREPRP | 0.217
RRIRQRPPRLPRPRPRPTNYPRP | -0.248

Sequence | shrunken log2 fold change
RRIRARPPRLPRPRPRPYHRPRP | -0.047
RRIRKRPPRLPRPRPRPRTKPRP | 1.08
RRIRQRPPRLPRPRPRPLMWPRP | 0.0648
RRIRVRPPRLPRPRPRPSPEPRP | -0.142
RRIRLRPPRLPRPRPRPHNEPRP | -0.497
RRIRERPPRLPRPRPRPGYHPRP | -0.502
RRIRIRPPRLPRPRPRPYVIPRP | -0.017
RRIRIRPPRLPRPRPRPRNEPRP | 0.227
RRIRWRPPRLPRPRPRPNMPPRP | -0.268
RRIRKRPPRLPRPRPRPISRPRP | -0.00748
RRIRSRPPRLPRPRPRPMIVPRP | -0.377
RRIRFRPPRLPRPRPRPTVNPRP | 2.04
RRIRQRPPRLPRPRPRPGGFPRP | 0.0441
RRIRVRPPRLPRPRPRPCCEPRP | -0.0815
RRIRARPPRLPRPRPRPSKAPRP | -0.151
RRIRCRPPRLPRPRPRPDRDPRP | 0.108
RRIRSRPPRLPRPRPRPPLMPRP | 0.129
RRIRVRPPRLPRPRPRPKGDPRP | 0.275
RRIRMRPPRLPRPRPRPEIIPRP | 2.84
RRIRWRPPRLPRPRPRPPLIPRP | -0.0843
RRIRKRPPRLPRPRPRPVLVPRP | -0.0465
RRIRERPPRLPRPRPRPVEVPRP | -0.209
RRIRERPPRLPRPRPRPSGGPRP | -0.0233
RRIRERPPRLPRPRPRPMGQPRP | -0.0667
RRIRHRPPRLPRPRPRPILPPRP | 0.0147

Sequence | shrunken log2 fold change
RRIRARPPRLPRPRPRPMIMPRP | -0.0807
RRIRTRPPRLPRPRPRPAKEPRP | -0.0337
RRIRFRPPRLPRPRPRPQKTPRP | 0.00435
RRIRMRPPRLPRPRPRPRLGPRP | 0.644
RRIRFRPPRLPRPRPRPYACPRP | 0.0338
RRIRWRPPRLPRPRPRPLWPPRP | 0.275
RRIRARPPRLPRPRPRPGFMPRP | 0.14
RRIRQRPPRLPRPRPRPPVSPRP | -0.203
RRIRQRPPRLPRPRPRPMTIPRP | -0.227
RRIRDRPPRLPRPRPRPYIKPRP | -0.565
RRIRTRPPRLPRPRPRPNIDPRP | -0.32
RRIRLRPPRLPRPRPRPAVAPRP | 0.552
RRIRQRPPRLPRPRPRPNDQPRP | -0.00615
RRIRRRPPRLPRPRPRPNETPRP | -0.0619
RRIRVRPPRLPRPRPRPKLCPRP | -0.0766
RRIRFRPPRLPRPRPRPADRPRP | -0.0752
RRIRVRPPRLPRPRPRPKCYPRP | 0.0107
RRIRMRPPRLPRPRPRPRALPRP | 2.22
RRIRERPPRLPRPRPRPFSSPRP | -0.0152
RRIRLRPPRLPRPRPRPEGYPRP | 0.104
RRIRERPPRLPRPRPRPGFRPRP | 0.231
RRIRYRPPRLPRPRPRPYHRPRP | -0.236
RRIRARPPRLPRPRPRPCNCPRP | 0.00702
RRIRRRPPRLPRPRPRPIDWPRP | 0.122
RRIRERPPRLPRPRPRPEIDPRP | -0.00826

Reference: the supplement of paper PMC9112550, “Optimization of the antimicrobial peptide Bac7 by deep mutational scanning” (BMC Biology, 2022)
